Test results: PMC7500927

How the values were obtained:
[1] = target: T1, TbRAP1(639-761) 5A, tag removed (Trypanosoma brucei, UniProt C1JEX5 639-761, R737A;K738A;R739A;R740A;R741A); test: NMR HSQC
T1 sequence: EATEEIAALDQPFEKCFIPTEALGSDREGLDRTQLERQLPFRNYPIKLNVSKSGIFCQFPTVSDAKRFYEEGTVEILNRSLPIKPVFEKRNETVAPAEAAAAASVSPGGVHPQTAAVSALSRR

[2] = target: T2, TbRAP1(639-761), tag removed (Trypanosoma brucei, UniProt C1JEX5 639-761); test: NMR HSQC
T2 sequence: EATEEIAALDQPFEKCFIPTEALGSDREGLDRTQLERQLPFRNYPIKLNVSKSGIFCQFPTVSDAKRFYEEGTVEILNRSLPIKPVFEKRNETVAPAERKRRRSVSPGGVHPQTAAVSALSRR

[3] = target: T3, TrxA-His6-TbRAP1(639-761) 5A (Trypanosoma brucei, UniProt C1JEX5 639-761, R737A;K738A;R739A;R740A;R741A); test: EMSA
T3 sequence: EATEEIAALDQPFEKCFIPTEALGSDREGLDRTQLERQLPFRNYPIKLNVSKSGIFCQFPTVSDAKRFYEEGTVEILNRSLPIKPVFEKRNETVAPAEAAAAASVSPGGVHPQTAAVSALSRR

[4] = target: T4, TrxA-His6-TbRAP1(639-733) (Trypanosoma brucei, UniProt C1JEX5 639-733); test: EMSA
T4 sequence: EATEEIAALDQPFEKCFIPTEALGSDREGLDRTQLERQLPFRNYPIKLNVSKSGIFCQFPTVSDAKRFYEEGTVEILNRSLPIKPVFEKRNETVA

[5] = target: T5, TrxA-His6-TbRAP1(639-761) (Trypanosoma brucei, UniProt C1JEX5 639-761); test: EMSA
T5 sequence: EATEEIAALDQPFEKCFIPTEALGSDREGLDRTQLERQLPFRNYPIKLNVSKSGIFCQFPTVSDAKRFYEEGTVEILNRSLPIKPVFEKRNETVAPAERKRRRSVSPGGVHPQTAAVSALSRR

[6] = target: T5, TrxA-His6-TbRAP1(639-761); test: competition
[7] = target: T5, TrxA-His6-TbRAP1(639-761); test: EMSA; remark: listed apart in the source
[8] = target: T6, TrxA-His6-TbRAP1(639-761) 2SA (Trypanosoma brucei, UniProt C1JEX5 639-761, S742A;S744A); test: EMSA
T6 sequence: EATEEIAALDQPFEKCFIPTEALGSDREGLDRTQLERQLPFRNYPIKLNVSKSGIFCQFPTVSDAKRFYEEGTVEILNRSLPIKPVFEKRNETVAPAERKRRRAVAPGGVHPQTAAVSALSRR

B1: random dsDNA 18 bp (NMR) (dsDNA)
DNA 1: TGTTGAGGAGGTGGTGAT
DNA 2: ATCACCACCTCCTCAACA
- binding result [1]: no binding
- binding result [2]: binds

B2: dsDNA 100 bp random (dsDNA)
DNA 1: GAATTCCAAAGAAGCCATGCGCCGTGCAGAGCAGGAAAAAGCCACACGGGAACTCCTCCTGCAACAAACTTCAGCACCACATGCATCATCAGTTACATCCGGGATCC
DNA 2: GGATCCCGGATGTAACTGATGATGCATGTGGTGCTGAAGTTTGTTGCAGGAGGAGTTCCCGTGTGGCTTTTTCCTGCTCTGCACGGCGCATGGCTTCTTTGGAATTC
- binding result [3]: no binding
- binding result [4]: no binding
- Kd [5]: 21.5 µM

B3: dsDNA 200 bp random (dsDNA)
DNA 1: CGCGCGTAATACGACTCACTATAGGGCGAATTGGGTACCGGGCCCCCCCTCGAGGTCGACGGTATCGATAAGCTTGATATCGAATTCCAAAGAAGCCATGCGCCGTGCAGAGCAGGAAAAAGCCACACGGGAACTCCTCCTGCAACAAACTTCAGCACCACATGCATCATCAGTTACATCCGGATCCACTAGTTCTAG
DNA 2: CTAGAACTAGTGGATCCGGATGTAACTGATGATGCATGTGGTGCTGAAGTTTGTTGCAGGAGGAGTTCCCGTGTGGCTTTTTCCTGCTCTGCACGGCGCATGGCTTCTTTGGAATTCGATATCAAGCTTATCGATACCGTCGACCTCGAGGGGGGGCCCGGTACCCAATTCGCCCTATAGTGAGTCGTATTACGCGCG
- binding result [6]: binds

B4: dsDNA 80 bp random (dsDNA)
DNA 1: CGTGCAGAGCAGGAAAAAGCCACACGGGAACTCCTCCTGCAACAAACTTCAGCACCACATGCATCATCAGTTACATCCGG
DNA 2: CCGGATGTAACTGATGATGCATGTGGTGCTGAAGTTTGTTGCAGGAGGAGTTCCCGTGTGGCTTTTTCCTGCTCTGCACG
- binding result [5]: binds

B5: dsDNA 150 bp random (dsDNA)
DNA 1: GTACCGGGCCCCCCCTCGAGGTCGACGGTATCGATAAGCTTGATATCGAATTCAATTCCAAAGAAGCCATGCGCCGTGCAGAGCAGGAAAAAGCCACACGGGAACTCCTCCTGCAACAAACTTCAGCACCACATGCATCATCAGTTACATCCGGGATC
DNA 2: GATCCCGGATGTAACTGATGATGCATGTGGTGCTGAAGTTTGTTGCAGGAGGAGTTCCCGTGTGGCTTTTTCCTGCTCTGCACGGCGCATGGCTTCTTTGGAATTGAATTCGATATCAAGCTTATCGATACCGTCGACCTCGAGGGGGGGCCCGGTAC
- binding result [7]: binds

B6: ssDNA 100 nt random (ssDNA)
DNA: AATTCCAAAGAAGCCATGCGCCGTGCAGAGCAGGAAAAAGCCACACGGGAACTCCTCCTGCAACAAACTTCAGCACCACATGCATCATCAGTTACATCCG
- binding result [3]: no binding
- binding result [4]: no binding
- Kd [5]: 0.31 µM
- binding result [8]: binds
